{"source": "paper PMC6920965", "about": "“Plant Polyphenols Inhibit Functional Amyloid and Biofilm Formation in Pseudomonas Strains by Directing Monomers to Off-Pathway Oligomers” (Biomolecules, 2019)", "key": {"FapC (FapC-UK4) [1]": {"target": "T1, FapC (FapC-UK4) (Pseudomonas fluorescens, UniProt P0DXF5)", "T1 construct": "His-tagged FapC wt, mature protein (226 residues)", "experiment": "ThT fibrillation assay of purified FapC; supported by CD, ATR-FTIR, SEC and SAXS of oligomers", "format": "biochemical"}, "FapC-PAO1": {"target": "FapC-PAO1 (Pseudomonas aeruginosa, UniProt Q9I2F0)", "sequence (Q9I2F0 25-340)": "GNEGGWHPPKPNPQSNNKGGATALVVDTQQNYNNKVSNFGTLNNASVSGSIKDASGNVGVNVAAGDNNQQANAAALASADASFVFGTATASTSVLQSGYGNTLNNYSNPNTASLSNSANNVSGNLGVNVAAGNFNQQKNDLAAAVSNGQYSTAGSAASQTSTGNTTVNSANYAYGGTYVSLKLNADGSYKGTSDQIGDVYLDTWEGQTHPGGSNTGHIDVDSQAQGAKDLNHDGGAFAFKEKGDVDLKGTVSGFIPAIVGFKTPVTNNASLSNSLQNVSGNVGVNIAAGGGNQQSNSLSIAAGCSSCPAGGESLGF", "experiment": "ThT fibrillation assay ([…] FapC-PAO1, […] polyphenol) and SDS-PAGE", "format": "biochemical"}, "[2]": {"target": "FapC from Pseudomonas sp. UK4, wild type (Pseudomonas sp. UK4)", "experiment": "SAXS; freshly desalted sample without TCEP; aggregation number (Nagg) by indirect Fourier transformation"}, "[3]": {"target": "FapC from Pseudomonas sp. UK4, wild type (Pseudomonas sp. UK4)", "experiment": "SAXS; oligomers formed in the presence of PGG and purified by SEC; Nagg by indirect Fourier transformation; core-shell model"}, "[4]": {"target": "FapC from Pseudomonas sp. UK4, wild type (Pseudomonas sp. UK4)", "experiment": "SAXS; oligomers formed in the presence of EGCG and purified by SEC; Nagg by indirect Fourier transformation; core-shell model"}, "[5]": {"target": "FapC from Pseudomonas sp. UK4, wild type (Pseudomonas sp. UK4)", "experiment": "SAXS; oligomers formed in the presence of baicalein and purified by SEC; Nagg by indirect Fourier transformation; core-shell model"}, "FapC (FapC-UK4) [6]": {"target": "T2, FapC (FapC-UK4) (Pseudomonas fluorescens, UniProt P0DXF5)", "T2 construct": "His-tagged FapC wt, 226-residue mature protein without the 24-residue signal peptide", "T2 sequence (P0DXF5 25-250)": "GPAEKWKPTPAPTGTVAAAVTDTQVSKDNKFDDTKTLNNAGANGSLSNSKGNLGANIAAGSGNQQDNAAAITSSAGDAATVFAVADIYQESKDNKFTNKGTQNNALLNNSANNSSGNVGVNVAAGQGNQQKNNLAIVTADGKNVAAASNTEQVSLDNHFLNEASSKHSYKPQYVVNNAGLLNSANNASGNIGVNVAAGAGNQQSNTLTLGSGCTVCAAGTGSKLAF", "experiment": "peptide array and SDS-PAGE blot with NBT staining; supported by ThT fibrillation, SEC and SAXS", "format": "binding"}, "[7]": {"target": "FapC-UK4 mutant lacking all three imperfect repeats (∆R1R2R3) (Pseudomonas sp. UK4)", "experiment": "SAXS; freshly desalted sample without TCEP; aggregation number (Nagg) by indirect Fourier transformation"}, "[8]": {"target": "FapC-UK4 mutant lacking all three imperfect repeats (∆R1R2R3) (Pseudomonas sp. UK4)", "experiment": "SAXS; oligomers formed in the presence of PGG and purified by SEC; Nagg by indirect Fourier transformation; core-shell model"}}, "data": [{"compound": "O=C(OC[C@H]1O[C@@H](OC(=O)c2cc(O)c(O)c(O)c2)[C@H](OC(=O)c2cc(O)c(O)c(O)c2)[C@@H](OC(=O)c2cc(O)c(O)c(O)c2)[C@@H]1OC(=O)c1cc(O)c(O)c(O)c1)c1cc(O)c(O)c(O)c1", "note": "[PGG, penta-O-galloyl-β-D-glucose]", "values": [{"measurement": "IC50", "setting": "FapC (FapC-UK4) [1]", "value": "~26", "unit": "µM"}, {"measurement": "ThT fibrillation assay (30 μM FapC-PAO1, 100 μM polyphenol) and SDS-PAGE", "setting": "FapC-PAO1", "value": "PGG, EGCG, and baicalein keep FapC monomeric or lead to off-pathway oligomers (Figure 4B)."}]}, {"compound": "FapC from Pseudomonas sp. UK4, wild type (natural protein)", "values": [{"measurement": "stoichiometry N", "setting": "[2]", "value": 4.4}, {"measurement": "stoichiometry N", "setting": "[3]", "value": 7.6}, {"measurement": "stoichiometry N", "setting": "[4]", "value": 6.7}, {"measurement": "stoichiometry N", "setting": "[5]", "value": 6.7}]}, {"compound": "O=c1cc(-c2ccccc2)oc2cc(O)c(O)c(O)c12", "note": "[baicalein]", "values": [{"measurement": "ThT fibrillation assay (30 μM FapC-PAO1, 100 μM polyphenol) and SDS-PAGE", "setting": "FapC-PAO1", "value": "PGG, EGCG, and baicalein keep FapC monomeric or lead to off-pathway oligomers (Figure 4B)."}]}, {"compound": "O=C(O[C@@H]1Cc2c(O)cc(O)cc2O[C@@H]1c1cc(O)c(O)c(O)c1)c1cc(O)c(O)c(O)c1", "note": "[EGCG, epigallocatechin gallate]", "values": [{"measurement": "peptide array and SDS-PAGE blot with NBT staining; supported by ThT fibrillation", "setting": "FapC (FapC-UK4) [6]", "value": "The intensity of EGCG binding varied significantly across the probed peptides (Figure 6C), showing particular affinity for regions"}, {"measurement": "ThT fibrillation assay (30 μM FapC-PAO1, 100 μM polyphenol) and SDS-PAGE", "setting": "FapC-PAO1", "value": "PGG, EGCG, and baicalein keep FapC monomeric or lead to off-pathway oligomers (Figure 4B)."}]}, {"compound": "FapC-UK4 mutant lacking all three imperfect repeats (∆R1R2R3) (domain or fragment)", "values": [{"measurement": "stoichiometry N", "setting": "[7]", "value": 2.7}, {"measurement": "stoichiometry N", "setting": "[8]", "value": 4.7}]}]}
